Measured values published in article PMC5915679 (Molecular cell, 2017).
No end group written: not given here. FAM = fluorescein amidite

How the values were obtained:
human Argonaute-1 [1] = biological target: T1, human Argonaute-1 (human, UniProt Q9UL18 1-857); assay: ITC
human Argonaute-1 [2] = biological target: T1, human Argonaute-1; assay: fluorescence polarisation

Binder | Kd (human Argonaute-1 [1]) [nM] | binding result (human Argonaute-1 [2])
TVDNGTSAWGKPIDSGPSWGEP (peptide, UniProt Q8NDV7-2 820-841, looked up) [hGW182 (TNRC6A) hook motif] | 383 | –
{FAM}-TVDNGTSAWGKPIDSGPSWGEP (peptide, UniProt Q8NDV7-2 820-841, looked up) [N-terminal fluorescein amidite (FAM) labeled hGW182 hook fragment] | – | binds
